Reference: US20230295310A1 (ABCELLERA BIOLOGICS, published 2023)

B1: mAb 43 (antibody, V domains shown)
VH: QAQLVQSGSELKKPGASVKVSCKASGYTFTKHSMNWVRQAPGQGLEWMGWINTNTGNPMYAQGFTGRFVFSLDTSVTTAYLQISSLKAEDTAVYYCAREGDYDFWSGFFNFDYWGQGTLVTVSS
VL: DIQMTQSPSSLSASVGDRVTITCRASQGIRNDLGWYQQKPGKAPKRLIYAASSLQSGVPSRFSGSGSGAEFTLTISSLQPEDFATYYCLQHNSYPRTFGQGTKVEIK
B2: mAb 68 (antibody, V domains shown)
VH: EVQLVDSGGGLVQPGGSLRLSCSGSGFTFSSYWMSWVRQAPGKGLEWVANIKQDGSQKYYVDSVKGRFTISRDNVKNSLYLQMNSLRVEDTAVYYCARDESSSWYWYFDLWGRGTLVTVSS
VL: DIQMTQSPSTLSASVGDRVTLTCRASQNIVKWLAWYQQKPGKAPKLLIYKASSLESGVPSWFSGSGSGTEFTLTINSLQPDDFATYYCQQYYTYSRTFGQGTKVEIK
B3: mAb 77 (antibody, V domains shown)
VH: EVQLVESGGGLVQPGGSLRLSCAASGFTFSNYWMSWVRQAPGKGLEWVANIKQDGSEKYYVDSVRGRFTISRDNAKKSLYLQMNSLRAEDTAVYYCARDNSNYAYWYFDIWGRGTLVTVSS
VL: DIQMTQSPSTLSVSVGDRVTITCRASQSIRKWLAWYQQKPGKAPKLLIFKASSLESGVPSRFSGSGSGTEFTLTISSLQPDDFATYYCQQYDTYSRTFGQGTKVEIK
B4: mAb 161 (antibody, V domains shown)
VH: EVQLVESGGGLVQPGRSLRLSCAASGITFADYTMHWVRQAPGKGLEWVSGISWNSGSIDYADSVKGRFTISRDNAKKTLYLQMNRLRAEDTALYYCAKDSSGYGHYYFYYLDVWGKGTTVTVSS
VL: EIVMTQSPATLSVSPGERATLSCRASQSVSNNLAWYQQKPGQAPRLLIYSTSTRATGIPARFSGSRSGTEFTLTISSLQSEDSAVYYCQQYNNWPHFGQGTRLEIK
B5: mAb 167 (antibody, V domains shown)
VH: EVHLVESGGGLVQPGRSLRLSCAASGFTFDDYAMHWVRQAPGKGLEWVSGISWNSGTIGYADSVKGRFTISRDNAKNSLYLEMNSLRAEDTALYYCAKDSSGYGHYYHYYIDVWGTGTTVTVSS
VL: EIVMTQSPATLSVSPGGRATLSCRASQSVGSNLAWYQQKPGQAPRLLIYDASTRATGIPARFRGSGSGTEFTLTISGLQSEDFAVYYCQLYYNWPHFGQGTRLEIK
B6: mAb 140 (antibody, V domains shown)
VH: QVQLVESGGGVVQPGRSLRLSCAASGFTFSTYGMHWVRQAPGKGLEWVAVIWYDGSHKYYADSVKGRFTISRDNSKNTLYLQMNSLRAEDTAVYYCARTGITGTTAYFYFDYWGQGTLVTVSS
VL: not shown
B7: mAb 146 (antibody, V domains shown)
VH: QVQLVESGGGVVQPGRSLRLSCAASGFTFITYGMHWVRQAPGKGLEWVAVIWYDGSHKYYADSVKGRFTISRDNSKNMLYLQMNSLRVEDTAVYYCARTGITGTTAYFYFDNWGQGTLVTVSS
VL: not shown
B8: mAb 144 (antibody, V domains shown)
VH: QVQLVESGGYVVQPGRSLRLSCAASGFTFSNFGMHWVRQAPGKGLEWVAVIWYDGSHKYYADSVKGRFTISRDNSKNTLYLQMNSLRAEDTAVYYCARTGITGTTAYFYFDYWGQGTLVTVSS
VL: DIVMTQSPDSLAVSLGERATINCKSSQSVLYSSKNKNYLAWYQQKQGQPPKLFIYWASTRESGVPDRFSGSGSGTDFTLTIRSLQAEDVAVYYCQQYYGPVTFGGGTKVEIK
B9: mAb 42 (antibody, V domains shown)
VH: QAQLVQSGSELKKPGASVKVSCKASGYTFTKHSMNWVRQAPGQGLEWMGWINTNTGNPTYAQGFTGRFVFSLDTSVTTAYLQISSLKAEDTAVYYCAREGDYDFWSGFFNFDYWGQGTLVTVSS
VL: DIQMTQSPSSLSASVGDRVTITCRASQGIRNDLGWYQQKPGKAPKRLIYAASSLQSGVPSRFSGSGSGAEFTLTISSLQPEDFATYYCLQHNSYPRTFGQGTKVEIK
B10: mAb 50 (antibody, V domains shown)
VH: QAQLVQSGSELKKPGASVKVSCKASGYTFTRHAMNWVRQAPGQGLEWMGWINTNTGNPTYAQGFTGRFVFSLDTSVTTAYLQISSLKAEDTAVYYCAREGDYDFWSGFFNFDYWGQGTLVTVSS
VL: DIQMTQSPSSLSASVGDRVTITCRASQGIRNDLGWFQQKPGKAPTRLIYAASSLQSGVPSRFSGSGSGAEFTLTISSLQPEDFATYYCLQHNSYPRTFGQGTKVEIK
B11: mAb 49 (antibody, V domains shown)
VH: EVQLVESGGGLVPPGGSLRLSCVASGFTLRSYTMNWVRQAPGQGLEWISYISSTSRTIYYSDSVKGRFTISRDNAKNSLYLQVNSLRDEDTALYYCAREDYYDSSGFDCWGQGTLVTVSS
VL: AIRMTQSPSSFSASTGDRVTITCRASQGIFNYLAWYQQKPGKAPKLLIYSTSTLQSGVPSRFSGSGSGTDFTLTIRGLQSEDLATYYCQQYYSFPRTFGQGTKVDIK
B12: mAb 142 (antibody, V domains shown)
VH: QVQLVESGGGVVQPGRSLRLSCAASGFTFSSYGMHWVRQAPGKGLEWVAVIWYDGSNKYYADSVKGRFTISRDNSKNTLYLQMNSLRAEDTAVYYCARTGITGTTAYFYFDSWGQGTLVTVSS
VL: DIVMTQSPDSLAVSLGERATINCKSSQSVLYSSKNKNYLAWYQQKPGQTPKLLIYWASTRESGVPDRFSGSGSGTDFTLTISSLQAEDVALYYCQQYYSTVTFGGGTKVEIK
B13: mAb 146 (antibody, V domains shown)
VH: QVQLVESGGGVVQPGRSLRLSCAASGFTFITYGMHWVRQAPGKGLEWVAVIWYDGSHKYYADSVKGRFTISRDNSKNMLYLQMNSLRVEDTAVYYCARTGITGTTAYFYFDNWGQGTLVTVSS
VL: not shown
B14: mAb 137 (antibody, V domains shown)
VH: QVQLVESGGGVVQPGRSLRLSCAASGFTFSTYGMHWVRQAPGKGLEWVAVIWYDGSHKYYADSVKGRFTISRDNSKKTLYLQMNSLRAEDTGIYYCARTGISGNMSYFYFDHWGQGILVTVSS
VL: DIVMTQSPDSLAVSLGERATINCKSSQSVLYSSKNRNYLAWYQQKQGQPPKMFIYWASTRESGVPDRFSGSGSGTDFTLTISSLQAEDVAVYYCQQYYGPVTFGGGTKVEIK
B15: mAb 140 (antibody, V domains shown)
VH: QVQLVESGGGVVQPGRSLRLSCAASGFTFSTYGMHWVRQAPGKGLEWVAVIWYDGSHKYYADSVKGRFTISRDNSKNTLYLQMNSLRAEDTAVYYCARTGITGTTAYFYFDYWGQGTLVTVSS
VL: not shown
B16: mAb 153 (antibody, V domains shown)
VH: QVQLVESGGGVVQPGRSLRLSCAASGFTFSTYGMHWVRQAPGKGLEWVAVIWYDGSHKYYSDSVKGRFTISRDNSKNTLYLQMNSLRVEDTAIYYCARTGITGTTAYFYFDSWGQGTLVTVSS
VL: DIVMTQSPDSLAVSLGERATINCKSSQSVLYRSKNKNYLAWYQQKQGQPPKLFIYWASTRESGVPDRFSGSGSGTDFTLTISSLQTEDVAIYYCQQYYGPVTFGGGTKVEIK
B17: mAb 141 (antibody, V domains shown)
VH: QVQLVQSGAEVKKPGASVKVSCKASGYTFTSYYIHWVRQAPGQGLDWMGIINPSGGITGYAQKLQGRVTMTRDTSTTTVYMELSSLRSDDTAVYYCARGVRGNYYYYYMDVWGKGTTVTVSS
VL: EIVLTQSPDFQSVTPKEKVTITCRASQSIGSKLHWYQQKPDQSPKLLIKYASQSFSGVPSRFSGSGSGTDFNLTINSLEAEDAATFYCHQSSGLPYTFGQGTKLEIK
B18: mAb 145 (antibody, V domains shown)
VH: QVQLVQSGAEVKKPGASVKVSCKASGYTFTNYYIHWVRQAPGQGLDWMGIINPSGGITGYAQKFQGRVTMTRDTSTTTVYMELSSLRSDDTAVYYCARGVRGNYYYYYMDVWGKGTTVTVSS
VL: EIVLTQSPDFQSVTPKEKVTITCRASQSIGSKLHWYQQKPDQSPKLLIKFASQSFSGVPSRFSGSGSGTDFNLTINSLEPEDAATFYCHQSSGLPYTFGQGTKLEIK
B19: mAb 131 (antibody, V domains shown)
VH: EVQLVESGGGLVKTGGSLRISCVASGFSFKKAWMNWVRQAPGKGLEWVGRIKRNTDGGTIDYAAPVKGRFSLSRDDSKNTLFLQMNSLKTEDTAVYFCTTLDSSSYYVGYYYMDVWGKGTTVTVSS
VL: DIHMTQSPSSVSASVGDRVTITCRASQDINNWLAWYQQKPGKAPKLLIYTASSLQSGVPSRFSGSGSGTDFTLTISSLQPEDFATYFCQQAHSLPITFGQGTRLGIK
B20: mAb 132 (antibody, V domains shown)
VH: DVQLVESGGGTVKTGGSLRLSCVASGFSFKKAWMNWVRQAPGKGLEWVGRIKKNSDGGTADYAAPVKGRFTISRDDSKKTLYLQMNSLQTEDTAVYYCTTLDSSSWYVGYYYMDVWGKGTTVTVSS
VL: DIQMTQSPSSVSASVGDRVIITCRASQDINNWLAWYQQKPGIAPKLLIYTASSLQSGVPSRFSGSGSVSDFTLTIGSLQPEDFATYYCQQAHSLPITFGQGTRLEIK
B21: mAb 133 (antibody, V domains shown)
VH: EVQLVESGGGLVKTGGSLRLSCVASGFSFKKAWMSWVRQAPGKGLEWVGRIKRNTDGGTADYAAPVKGRFTLSRDDSKKTLFLQMNSLKTEDSAVYYCVTLDSSSYYVGYYYMDVWGKGTTVTVSS
VL: DIQMTQSPSSVSASVGDRVSITCRASQDINNWLAWYQQKPGKAPKLLIYTASSLQSGVPSRFSGSGSGTDFTLTIGSLQPEDFATYYCQQAHSLPITFGQGTRLEIK

Biological target: T1, human CD3 expressed on cells (human, UniProt P07766 23-207; P04234 22-171; P09693 23-182)
T1 construct: whole, on cells; CD3 complex on Jurkat cells and on human primary T cells
Assay: flow cytometry, 25 nM
Procedure: Purified antibodies were confirmed to bind CD3 expressed on cells using the CytoFLEX S or LX flow cytometers (Beckman Coulter). Antibodies were diluted to 25 nM in FACS buffer (PBS+2% FBS) and were incubated with CD3-expressing cells for 30 minutes at 4° C. […] The median fluorescence intensity of the binding signal for each antibody was normalized to the isotype control to obtain a fold over isotype value. An antibody with a fold over isotype (FOI) of ≥10 was considered to be positive for binding.

T1 sequence (P07766 23-207, chain 1 of 3): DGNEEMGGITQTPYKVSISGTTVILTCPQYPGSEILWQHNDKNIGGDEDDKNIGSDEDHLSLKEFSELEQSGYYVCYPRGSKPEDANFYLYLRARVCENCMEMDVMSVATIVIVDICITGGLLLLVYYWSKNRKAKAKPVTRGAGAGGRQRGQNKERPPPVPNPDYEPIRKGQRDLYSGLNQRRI
T1 sequence (P04234 22-171, chain 2 of 3): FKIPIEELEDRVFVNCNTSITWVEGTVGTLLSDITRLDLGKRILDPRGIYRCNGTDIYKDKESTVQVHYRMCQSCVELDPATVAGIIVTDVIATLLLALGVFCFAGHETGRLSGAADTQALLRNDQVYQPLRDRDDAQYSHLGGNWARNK
T1 sequence (P09693 23-182, chain 3 of 3): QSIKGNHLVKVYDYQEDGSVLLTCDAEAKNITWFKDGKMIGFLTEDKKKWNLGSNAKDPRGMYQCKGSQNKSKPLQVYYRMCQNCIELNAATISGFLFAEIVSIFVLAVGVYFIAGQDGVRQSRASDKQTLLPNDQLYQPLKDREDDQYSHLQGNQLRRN

Point of comparison: B6, “Human primary T Cell Binding (FOI)” value 148 FOI. Against it:
- B1 — lower, 83.3 FOI
- B2 — lower, 117 FOI
- B3 — lower, 125 FOI
- B4 — higher, 170 FOI
- B5 — higher, 167 FOI
- B7 — higher, 340 FOI
- B8 — higher, 157 FOI

Point of comparison: B2, “Jurkat Cell Binding (FOI)” value 113 FOI. Against it:
- B1 — lower, 108 FOI
- B3 — lower, 106 FOI
- B4 — lower, 106 FOI
- B5 — higher, 124 FOI
- B6 — higher, 135 FOI
- B7 — higher, 194 FOI
- B8 — higher, 139 FOI

Biological target: human CD3 (human, UniProt P07766 23-207; P04234 22-171; P09693 23-182)
Assay: cell-based or functional assay

Chain of human CD3 (P07766 23-207, chain 1 of 3): as the sequence (P07766 23-207, chain 1 of 3) above
Chain of human CD3 (P04234 22-171, chain 2 of 3): as the sequence (P04234 22-171, chain 2 of 3) above
Chain of human CD3 (P09693 23-182, chain 3 of 3): as the sequence (P09693 23-182, chain 3 of 3) above

Point of comparison: B18, “CD4 EC50 (nM); CD69/CD25 on human T cells, plate-coated antibody” value 13.3 nM. Against it:
- B9 — 1.9-fold higher, 25.4 nM
- B10 — 2-fold higher, 26.3 nM
- B11 — 2-fold lower, 6.76 nM
- B12 — 2-fold higher, 26.9 nM
- B13 — within 1.5-fold, 12.5 nM
- B14 — within 1.5-fold, 13.1 nM
- B15 — within 1.5-fold, 13.7 nM
- B16 — 1.5-fold lower, 8.76 nM
- B17 — 1.7-fold higher, 22.1 nM
- B19 — the same, 13.3 nM
- B20 — 2.1-fold lower, 6.39 nM
- B21 — within 1.5-fold, 13.9 nM

Point of comparison: B12, “CD8 EC50 (nM); CD69/CD25 on human T cells, plate-coated antibody” value 32 nM. Against it:
- B9 — within 1.5-fold, 25.5 nM
- B10 — within 1.5-fold, 24.5 nM
- B11 — 4.8-fold lower, 6.65 nM
- B13 — 2.5-fold lower, 12.6 nM
- B14 — 2.3-fold lower, 14.1 nM
- B15 — 1.8-fold lower, 17.8 nM
- B16 — 3.7-fold lower, 8.56 nM
- B17 — within 1.5-fold, 22.8 nM
- B18 — 2.1-fold lower, 14.9 nM
- B19 — 2.4-fold lower, 13.3 nM
- B20 — 5-fold lower, 6.34 nM
- B21 — 2.4-fold lower, 13.6 nM
